From patent US20210139548A1 (published 2021)
*1 amine or outer side, *2 acyl side, *3 side chain or, on linkers, in order; H or OH if unused. Side-chain parts run from the residue outwards. The star is where a group is joined. C18 diacid = O=C(O)CCCCCCCCCCCCCCCCC(=O)*; γGlu = O=C(O)[C@H](CCC(=O)[*:2])N[*:1]; Isovaleryl = CC(C)CC(=O)*; AEEA = NCCOCCOCC(=O)O

T1: human neuropeptide Y2 receptor (human, UniProt P49146 1-381)
T1 construct: whole, on cells; also called hNPY2 receptor; hNPY2-R
T1 sequence (looked up): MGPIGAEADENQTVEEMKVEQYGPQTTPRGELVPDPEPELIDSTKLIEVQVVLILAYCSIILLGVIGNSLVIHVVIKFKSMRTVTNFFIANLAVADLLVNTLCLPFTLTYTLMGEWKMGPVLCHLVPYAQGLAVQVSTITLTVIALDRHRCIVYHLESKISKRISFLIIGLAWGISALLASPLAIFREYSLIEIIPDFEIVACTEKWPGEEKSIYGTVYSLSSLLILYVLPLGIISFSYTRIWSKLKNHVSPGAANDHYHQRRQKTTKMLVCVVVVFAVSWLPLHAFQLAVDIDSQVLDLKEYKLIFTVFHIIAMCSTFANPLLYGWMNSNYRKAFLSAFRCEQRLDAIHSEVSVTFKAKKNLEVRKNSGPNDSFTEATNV

B1: Compound 25 (peptide)
peptide: Isovaleryl-APEK([AEEA-AEEA-γGlu-C18 diacid])PEEEASAEELQRYYVSLRHYYNWLTRQRY-NH2
SMILES: CC(C)CC(=O)N[C@@H](C)C(=O)N1CCC[C@H]1C(=O)N[C@@H](CCC(=O)O)C(=O)N[C@@H](CCCCNC(=O)COCCOCCNC(=O)COCCOCCNC(=O)CC[C@H](NC(=O)CCCCCCCCCCCCCCCCC(=O)O)C(=O)O)C(=O)N1CCC[C@H]1C(=O)N[C@@H](CCC(=O)O)C(=O)N[C@@H](CCC(=O)O)C(=O)N[C@@H](CCC(=O)O)C(=O)N[C@@H](C)C(=O)N[C@@H](CO)C(=O)N[C@@H](C)C(=O)N[C@@H](CCC(=O)O)C(=O)N[C@@H](CCC(=O)O)C(=O)N[C@@H](CC(C)C)C(=O)N[C@@H](CCC(N)=O)C(=O)N[C@@H](CCCNC(=N)N)C(=O)N[C@@H](Cc1ccc(O)cc1)C(=O)N[C@@H](Cc1ccc(O)cc1)C(=O)N[C@H](C(=O)N[C@@H](CO)C(=O)N[C@@H](CC(C)C)C(=O)N[C@@H](CCCNC(=N)N)C(=O)N[C@@H](Cc1c[nH]cn1)C(=O)N[C@@H](Cc1ccc(O)cc1)C(=O)N[C@@H](Cc1ccc(O)cc1)C(=O)N[C@@H](CC(N)=O)C(=O)N[C@@H](Cc1c[nH]c2ccccc12)C(=O)N[C@@H](CC(C)C)C(=O)N[C@H](C(=O)N[C@@H](CCCNC(=N)N)C(=O)N[C@@H](CCC(N)=O)C(=O)N[C@@H](CCCNC(=N)N)C(=O)N[C@@H](Cc1ccc(O)cc1)C(N)=O)[C@@H](C)O)C(C)C
B2: Compound 26 (peptide)
peptide: Isovaleryl-APEK([AEEA-AEEA-γGlu-C18 diacid])PPEDATPEELQRYYVSLRHYYNWLTRQRY-NH2
SMILES: CC(C)CC(=O)N[C@@H](C)C(=O)N1CCC[C@H]1C(=O)N[C@@H](CCC(=O)O)C(=O)N[C@@H](CCCCNC(=O)COCCOCCNC(=O)COCCOCCNC(=O)CC[C@H](NC(=O)CCCCCCCCCCCCCCCCC(=O)O)C(=O)O)C(=O)N1CCC[C@H]1C(=O)N1CCC[C@H]1C(=O)N[C@@H](CCC(=O)O)C(=O)N[C@@H](CC(=O)O)C(=O)N[C@@H](C)C(=O)N[C@H](C(=O)N1CCC[C@H]1C(=O)N[C@@H](CCC(=O)O)C(=O)N[C@@H](CCC(=O)O)C(=O)N[C@@H](CC(C)C)C(=O)N[C@@H](CCC(N)=O)C(=O)N[C@@H](CCCNC(=N)N)C(=O)N[C@@H](Cc1ccc(O)cc1)C(=O)N[C@@H](Cc1ccc(O)cc1)C(=O)N[C@H](C(=O)N[C@@H](CO)C(=O)N[C@@H](CC(C)C)C(=O)N[C@@H](CCCNC(=N)N)C(=O)N[C@@H](Cc1c[nH]cn1)C(=O)N[C@@H](Cc1ccc(O)cc1)C(=O)N[C@@H](Cc1ccc(O)cc1)C(=O)N[C@@H](CC(N)=O)C(=O)N[C@@H](Cc1c[nH]c2ccccc12)C(=O)N[C@@H](CC(C)C)C(=O)N[C@H](C(=O)N[C@@H](CCCNC(=N)N)C(=O)N[C@@H](CCC(N)=O)C(=O)N[C@@H](CCCNC(=N)N)C(=O)N[C@@H](Cc1ccc(O)cc1)C(N)=O)[C@@H](C)O)C(C)C)[C@@H](C)O

Molecular target: T1, human neuropeptide Y2 receptor
Test: radioligand competition (125I-PYY(1-36)), hNPY2R membranes
Summary of the method: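 Commercial human Y2 receptor membranes (0.5 μg protein/well) were incubated with peptide for 2 h at room temperature in 50 mM HEPES, 5 mM MgCl₂, 1 mM CaCl₂, pH 7.4, with 0.2% ovalbumin. Bound radioligand was separated on PEI-soaked GF/C filters and counted by scintillation, and IC₅₀ came from nonlinear sigmoidal regression.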

Row | Binder | Ki
1 | B1 | 4.36 nM
2 | B2 | 0.77 nM
